Experimental findings from patent publication US20190270815A1 (published 2019) are described below.

Residue numbers refer to the chain shown, from its start.

Sequences and labels used below:
B1: 1.139.15 hAb (antibody, V domains shown)
VH: QLQLQESGPGLVKPSETLSLTCTVSGGSISSTTYYWGWIRQPPGKGLEWIGSISYSGTTYYNPSLKSRVTIPVDTSKNQISLKLSSVTAADTSLYYCARHLGYNSNWYPFDYWGQGTLVTVSS
VL: QSALTQPPSVSGSPGQSVTISCTGTSSDVGSYNRVSWYQQPPGTAPEVIIYEVSNRPSGVPDRFSGSKSGNTASLTISGLQAEDEADYYCSSYTSSSTWVFGGGTKLTVL
B2: 1.49.9 hAb (antibody, V domains shown)
VH: QLQLQESGPGLVKPSETLSLTCTVSGGSISSSTYYWGWIRQPPGKGLEWIGSISYSGSTYYNPSLKSRVTISVDTSKNQFSLKLSSVTDADTAVYYCARHLGYNGRYLPFDYWGQGTLVTVSS
VL: B1 VL with P8A, V18I, S31F, R34Y, P41H, T44K, I49M, E52D, P61S, S96I
B3: 1.153.7 hAb (antibody, V domains shown)
VH: EVQLLESGGGLVQPGGSLRLSCAASGFTFSSHAMSWVRQAPGKGLEWVSTITGGGGSIYYADSVKGRFTISRDNSKNTLYLQMNSLRAEDTAVYYCAKNRAGEGYFDYWGQGTLVTVSS
VL: SYELTQPLSVSVALGQTARITCGGDNIGNKDVHWYQQKPGQAPVLVIYRDSNRPSGIPEGFSGSNSGNTATLTISRAQAGDEADYYCQVWDSIWVFGGGTKLTVL
B4: 1.103.11 hAb (antibody, V domains shown)
VH: QLQLQESGPGLVKPSETLTLTCTVSADSISSTTYYWVWIRQPPGKGLEWIGSISYSGSTYYNPSLKSRVTVSVDTSKNQFSLKLNSVAATDTALYYCARHLGYNGRYLPFDYWGQGTLVTVSS
VL: QSALTQPASVSGSPGQSITISCTGTSSDVGFYNYVSWYQQHPGKAPELMIYDVSNRPSGVSDRFSGSKSGNTASLTISGLQAEDEADYYCSSYTNISTWVFGGGTKLTVL
B5: 1.7.3 hAb (antibody, V domains shown)
VH: B4 VH with A26G, S58N, V71I, Q79H, N85S
VL: B4 VL with S54T, N95S

The target of the first assay is recombinant human PD-1 (human, UniProt Q15116 25-167). Description: SPR.
Chain of recombinant human PD-1 (Q15116 25-167): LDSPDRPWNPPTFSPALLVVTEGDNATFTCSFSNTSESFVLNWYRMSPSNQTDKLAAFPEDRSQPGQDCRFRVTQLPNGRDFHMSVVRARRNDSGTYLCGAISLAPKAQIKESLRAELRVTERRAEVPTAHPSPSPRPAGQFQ
Consider B1, for which the Kd is 3.71 nM.

As for B2, the Kd is 1.07 nM.

On to B3, for which the Kd stood at 2.79 nM.

Consider B4, for which the Kd stood at 0.175 nM.

Take B5: the Kd amounted to 0.176 nM.

In the next assay the target is T1, human PD-1 expressed on cells (human, UniProt Q15116 25-288). As to the kind of experiment: FACS blocking of PD-L1 binding.
T1 sequence (Q15116 25-288): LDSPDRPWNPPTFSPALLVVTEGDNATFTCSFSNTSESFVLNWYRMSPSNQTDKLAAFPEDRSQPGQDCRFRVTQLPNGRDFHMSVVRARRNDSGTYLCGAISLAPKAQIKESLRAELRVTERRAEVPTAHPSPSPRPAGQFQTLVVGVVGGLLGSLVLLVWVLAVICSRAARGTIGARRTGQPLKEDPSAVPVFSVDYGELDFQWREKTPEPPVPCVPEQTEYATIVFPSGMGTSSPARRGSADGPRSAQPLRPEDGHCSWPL
As to B1, the concentration for half-maximal inhibition (IC50) was 3.1 nM.

As for B2, the half-inhibitory concentration (IC50) turned out to be 4.21 nM. This IC50 and that of the molecule before are within 1.5-fold of each other.

For B3, the concentration for half-maximal inhibition (IC50) amounted to 4.49 nM. The IC50 values of the last two molecules are within 1.5-fold of each other.

With B4, the half-inhibitory concentration (IC50) is 4.44 nM.

B5: the 50% inhibitory concentration (IC50) amounted to 3.51 nM.

The next assay deals with T1, human PD-1 expressed on cells. Description: FACS.
In turn, B1 had an EC50 of 1.92 nM.

Take B2: the EC50 was determined as 2.15 nM.

Take B3: the EC50 amounted to 2.62 nM. The EC50 values of the last two molecules are within 1.5-fold of each other.

As for B4, the EC50 was determined as 2.09 nM.

B5 came in with a concentration giving a half-maximal response (EC50) of 2.44 nM.
